Source: the Immune Epitope Database (IEDB)

Assays:
[1] = target: HLA-A*01:01; assay: IEDB peptide-MHC binding, purified MHC/direct/fluorescence; filed as Kd, often an IC50 or EC50 that approximates it; ≥ and ≤ were set here for values at or beyond the usual limits of such assays; details: source organism: Mycobacterium tuberculosis
[2] = target: HLA-A*02:01; assay: as above; details: source organism: Mycobacterium tuberculosis
[3] = target: HLA-A*03:01; assay: as above; details: source organism: Mycobacterium tuberculosis
[4] = target: HLA-A*11:01; assay: as above; details: source organism: Mycobacterium tuberculosis
[5] = target: HLA-A*26:01; assay: as above; details: source organism: Mycobacterium tuberculosis str. Haarlem
[6] = target: HLA-A*31:01; assay: as above; details: source organism: Mycobacterium tuberculosis
[7] = target: HLA-A*69:01; assay: as above; details: source organism: Mycobacterium tuberculosis
[8] = target: HLA-B*15:09; assay: as above; details: source organism: Mycobacterium tuberculosis str. Haarlem
[9] = target: HLA-B*15:17; assay: as above; details: source organism: Mycobacterium tuberculosis
[10] = target: HLA-B*27:05; assay: as above; details: source organism: Mycobacterium tuberculosis
[11] = target: HLA-B*40:01; assay: as above; details: source organism: Mycobacterium tuberculosis
[12] = target: HLA-B*46:01; assay: as above; details: source organism: Mycobacterium tuberculosis
[13] = target: HLA-B*48:01; assay: as above; details: source organism: Mycobacterium tuberculosis
[14] = target: HLA-B*51:01; assay: as above; details: source organism: Mycobacterium tuberculosis
[15] = target: HLA-B*57:01; assay: as above; details: source organism: Mycobacterium tuberculosis
[16] = target: HLA-B*58:01; assay: as above; details: source organism: Mycobacterium tuberculosis
[17] = target: HLA-A*32:15; assay: IEDB peptide-MHC binding, purified MHC/competitive/fluorescence; filed as Kd, often an IC50 or EC50 that approximates it; ≥ and ≤ were set here for values at or beyond the usual limits of such assays; details: source organism: Mycobacterium tuberculosis C
[18] = target: HLA-B*15:01; assay: as above; details: source organism: Mycobacterium tuberculosis C
[19] = target: HLA-B*15:42; assay: as above; details: source organism: Mycobacterium tuberculosis C
[20] = target: HLA-B*45:06; assay: as above; details: source organism: Mycobacterium tuberculosis C
[21] = target: HLA-B*83:01; assay: as above; details: source organism: Mycobacterium tuberculosis C
[22] = target: HLA-C*06:02; assay: IEDB peptide-MHC binding, purified MHC/direct/fluorescence; filed as Kd, often an IC50 or EC50 that approximates it; ≥ and ≤ were set here for values at or beyond the usual limits of such assays
[23] = target: HLA-B*73:01; assay: IEDB peptide-MHC binding, purified MHC/competitive/fluorescence; filed as Kd, often an IC50 or EC50 that approximates it; ≥ and ≤ were set here for values at or beyond the usual limits of such assays
[24] = target: HLA-C*04:01; assay: IEDB peptide-MHC binding, purified MHC/direct/fluorescence; filed as Kd, often an IC50 or EC50 that approximates it; ≥ and ≤ were set here for values at or beyond the usual limits of such assays; details: source organism: Homo sapiens
[25] = target: HLA-C*07:02; assay: as above; details: source organism: Homo sapiens
[26] = target: HLA-B*27:05; assay: IEDB peptide-MHC binding, purified MHC/competitive/fluorescence; filed as Kd, often an IC50 or EC50 that approximates it; ≥ and ≤ were set here for values at or beyond the usual limits of such assays; details: source organism: Encephalitozoon cuniculi GB-M1
[27] = target: HLA-B*48:01; assay: as above; details: source organism: Encephalitozoon cuniculi GB-M1
[28] = source organism: Encephalitozoon cuniculi GB-M1

LPAEVRAAF
Kd [1]: 4.61 µM
Kd [2]: ≥ 20 µM
Kd [3]: ≥ 20 µM
Kd [4]: ≥ 20 µM
Kd [5]: 0.889 µM
Kd [6]: ≥ 20 µM
Kd [7]: 1.31 µM
Kd [8]: ≥ 20 µM
Kd [9]: ≥ 20 µM
Kd [10]: ≥ 20 µM
Kd [11]: ≥ 20 µM
Kd [12]: ≥ 20 µM
Kd [13]: ≥ 20 µM
Kd [14]: ≥ 20 µM
Kd [15]: ≥ 20 µM
Kd [16]: ≥ 20 µM
Kd [17]: 0.757 µM
Kd [18]: ≥ 20 µM
Kd [19]: ≥ 5 µM
Kd [20]: ≥ 5 µM
Kd [21]: 0.0676 µM

RKKLRPRWL
Kd ([22]; source organism: dengue virus type 1): ≥ 20 µM

SDFFDRLQV
Kd ([23]; source organism: Cryptosporidium parvum Iowa II): ≥ 20 µM

SRDYYRHKV
Kd ([23]; source organism: Clostridium novyi NT): 3.62 µM

WYDALCVLL
Kd [24]: 0.035 µM

YFYYNAFHW
Kd [24]: ≥ 20 µM
Kd [25]: 2.06 µM

YRFNLRRKM
Kd [22, 28]: 0.01 µM
Kd [26]: 0.0012 µM
Kd [27]: ≥ 20 µM
Kd [23, 28]: 0.0851 µM

YYNAFHWAI
Kd [25]: 0.715 µM
